Experimental data from the supplement of paper PMC10724198.
± gives the standard deviation of the averaged measurements.

System: Saccharomyces cerevisiae
Assay: protein stability index of tFT-peptide fusion (C-terminal peptide) (PSI (0-1 scale)); higher = more stable (slower turnover)
Settings: temperature: 30 C
Method: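 MPS profiling in S. cerevisiae of the yeast C-terminome library: the last 12 aa of each annotated ORF are fused to the C-terminus of a sfGFP-mCherry timer, after a GGGS linker. Cells are FACS-sorted into 8 mCherry/sfGFP bins and deep-sequenced. PSI runs from 0 (unstable) to 1 (stable); wild type and das1Δ backgrounds, two technical replicates each.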

[1] = genetic background: das1 deletion

| Sequence | protein stability index [1] | protein stability index (genetic background: wild type) |
| --- | --- | --- |
| TTWKTTCKIFGE [YBL055C C-terminal 12 aa] | 0.693 ± 0.019 | 0.712 ± 0.008 |
| EWEEKQGMDFVR [GPN2 C-terminal 12 aa] | 0.7083 ± 0.0027 | 0.685 ± 0.0095 |
| LSCRKNLSAFAT [YOL085C C-terminal 12 aa] | 0.658 ± 0.018 | 0.666 ± 0.0096 |
| RVPKKNGKLSKK [PDR5 C-terminal 12 aa] | 0.7012 ± 0.0033 | 0.704 ± 0.055 |
| AKISDKENKAFL [MRPL15 C-terminal 12 aa] | 0.6927 ± 0.0019 | 0.678 ± 0.025 |
| DVIDTIMSKQEP [UGA4 C-terminal 12 aa] | 0.698 ± 0.02 | 0.6826 ± 0.0027 |
| WAINESEGYGFR [HUL4 C-terminal 12 aa] | 0.727 ± 0.016 | 0.708 ± 0.051 |
| RSRNKALVSVST [VPS63 C-terminal 12 aa] | 0.6496 ± 0.0045 | 0.667 ± 0.049 |
| ILRLRLRKATFD [PRM1 C-terminal 12 aa] | 0.706 ± 0.023 | 0.708 ± 0.044 |
| LQVILMSLGAIA [MDM31 C-terminal 12 aa] | 0.446 ± 0.014 | 0.508 ± 0.0098 |
| TQKLNEKSSKES [ATC1 C-terminal 12 aa] | 0.715 ± 0.031 | 0.644 ± 0.036 |
| KLLEESKGLLDV [YJR079W C-terminal 12 aa] | 0.701 ± 0.023 | 0.699 ± 0.013 |
| PQDKPAGQSIWL [HRR25 C-terminal 12 aa] | 0.6795 ± 0.00075 | 0.6948 ± 0.0048 |
| MNKAEDDISEEE [SUB1 C-terminal 12 aa] | 0.713 ± 0.029 | 0.684 ± 0.011 |
| GQLTTDEETCIE [RTR2 C-terminal 12 aa] | 0.6793 ± 0.0044 | 0.726 ± 0.034 |
| IGFKRKRKHAKK [NOP4 C-terminal 12 aa] | 0.703 ± 0.051 | 0.7117 ± 0.0028 |
| KHLAKALADLIS [JHD1 C-terminal 12 aa] | 0.717 ± 0.018 | 0.701 ± 0.032 |
| LKNKKKLYKTKV [PPQ1 C-terminal 12 aa] | 0.7157 ± 0.0043 | 0.694 ± 0.017 |
| FYPVTSEFSKNK [HOB2 C-terminal 12 aa] | 0.7 ± 0.039 | 0.767 ± 0.013 |
| EKDNSQKIEAKK [SDH4 C-terminal 12 aa] | 0.69 ± 0.012 | 0.697 ± 0.11 |
